The record followed here is patent US20250011424A1 (SALVARX, published 2025).

Assay [1] deals with T1, V-C1-C2 construct of human RAGE (human, UniProt Q15109 23-404).
T1 construct: also called ABC construct; not shown: eGFP of the vector pEGFP-N2, fused in frame at the C-terminus
Put plainly: binding to cells expressing RAGE domain constructs fused to eGFP. The text has this:
The extracellular portion of the RAGE protein contains three domains with similarities to the IgG family. The three domains are V, C1, and C2 (variable, constant 1, and constant 2, respectively). RS07 binds the V domain while RS15 binds an integrated V-C1 domain (FIG. 2B). RAGE constructs used in the present exemplary embodiment include a V-C1-C2 construct starting at amino acid 23 of SEQ ID NO:1 (AQNITA . . . ), immediately following the native signal sequence. The C1-C2 construct starts at amino acid 117 of SEQ ID NO:1 (VYQIPG . . . ), and the C2 construct starts at amino acid 249 of SEQ ID NO:1 (VAPGG . . . ). Domains were predicted on Genbank and by crystal structure. To map antibody binding to individual RAGE domains, the IL2 signal sequence was cloned into pEGFP-N2, into which portions of RAGE were cloned in-frame with IL2 signal sequence (IL2ss) at the 5′ end and in-frame with eGFP at the 3′ end. In addition to the extracellular portions of RAGE, all constructs contain the RAGE transmembrane and C-terminal regions, so the GFP signal should be intracellular, while the IL2ss ensures the RAGE V, C1, and/or C2 motifs are extracellular, and accessible to antibodies. The ABC construct in FIG. 2B includes the V, C1, and C2 domains, and initiates at aa 23 of SEQ ID NO: 1. The BC construct in FIG. 2B includes the C1 and C2 domains, and initiates at aa 116 of SEQ ID NO: 1. […]

Assay [2] deals with T2, Human RAGE (human, UniProt Q15109 23-404).
T2 construct: also called receptor for advanced glycation end products; AGER
Kind of assay: flow cytometry on human colorectal cancer samples. Background: A flow cytometer gives signals particle by particle.

T1 sequence (Q15109 23-404): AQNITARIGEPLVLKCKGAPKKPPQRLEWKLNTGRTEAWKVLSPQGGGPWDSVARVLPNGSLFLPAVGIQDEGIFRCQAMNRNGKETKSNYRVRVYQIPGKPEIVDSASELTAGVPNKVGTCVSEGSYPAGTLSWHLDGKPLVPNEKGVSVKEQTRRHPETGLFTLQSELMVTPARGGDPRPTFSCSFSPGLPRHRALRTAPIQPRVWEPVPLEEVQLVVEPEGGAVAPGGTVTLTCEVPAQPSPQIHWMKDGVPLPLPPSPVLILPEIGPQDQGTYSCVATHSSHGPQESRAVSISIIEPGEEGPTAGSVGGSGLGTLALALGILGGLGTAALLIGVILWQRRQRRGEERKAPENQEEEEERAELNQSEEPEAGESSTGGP
T2 sequence (Q15109 23-404): as above

B1: RS15 (antibody, V domains shown)
VH: QVQLQQSGAELVRPGTSLKVSCKASGYAFTNYLIEWVNQRPGQGLEWIGVINPGSGGTHYNEKFKGKATLTADKSSSTAYMQLSSLTSDDSAIYFCARSRAVRAMDYWGQGTSVTV
VL: DIVMTQSQKFMSTSVGDRVSVTCKASQNVGTNVAWYQQKPGQSPKSLIYSASYRYSGVPDRFTGSGSGTDFTLTISNVQSEDLAEYFCQQYNSYFFTFGAGTKLELKR
notes: Mouse monoclonal IgG from a hybridoma (BALB/c immunised with human RAGE extracellular domain); also called RFT01; anti-RAGE (RS15)
B1: the binding result in assay [1] and in assay [2] was “binds” throughout.
